What is called IC50 is the point on the concentration scale where inhibition reaches its midpoint. High values mean weaker potency, low ones greater potency. In general, Kd refers to a measure of binding affinity in units of concentration. A high value points to lower affinity.

Like-named read-outs stand apart in the source and are kept apart here.

For assay [1], the target named is T1, CCL5_HUMAN (human, UniProt P13501 24-91).
T1 sequence: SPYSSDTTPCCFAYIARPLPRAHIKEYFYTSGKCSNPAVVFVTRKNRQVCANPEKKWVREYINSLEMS
Description: yeast surface display FACS.

In assay [2] the target is T2, CCL8_HUMAN (human, UniProt P80075 24-99).
T2 sequence (looked up): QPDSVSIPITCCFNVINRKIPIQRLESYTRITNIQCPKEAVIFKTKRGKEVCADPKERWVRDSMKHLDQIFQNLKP
The experiment in a line: yeast surface display FACS.

The target of assay [3] is T2, CCL8_HUMAN. Description: cell-based or functional assay.
The target in another assay is T3, CCL8-647 (human, UniProt P80075 24-99).
T3 sequence (looked up): T2 sequence (looked up)
Description: flow cytometry, inhibition of CCL8-647 binding to THP-1 cells. In general terms: A flow cytometer gives signals particle by particle.

The target of another assay is CCL2-647 (human, UniProt P13500 24-99). Description: flow cytometry, inhibition of CCL2-647 binding to THP-1 cells.
The target in assay [4] is T4, CCL3_HUMAN (human, UniProt P10147 24-92).
T4 sequence: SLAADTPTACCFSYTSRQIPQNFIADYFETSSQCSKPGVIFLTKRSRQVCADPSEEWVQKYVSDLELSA
The experiment in a line: cell-based or functional assay.

In assay [5] the target is T2, CCL8_HUMAN. Description: cell-based or functional assay. The source holds these as a separate data set.
The next assay addresses T5, CCL4_HUMAN (human, UniProt P13236 24-92).
T5 sequence: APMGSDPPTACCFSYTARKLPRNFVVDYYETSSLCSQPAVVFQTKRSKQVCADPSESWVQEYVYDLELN
The experiment in a line: yeast surface display FACS.

The target of assay [6] is T4, CCL3_HUMAN. Description: yeast surface display FACS.
Assay [7] has as its target T6, CCL1_HUMAN (human, UniProt P22362 24-96).
T6 sequence: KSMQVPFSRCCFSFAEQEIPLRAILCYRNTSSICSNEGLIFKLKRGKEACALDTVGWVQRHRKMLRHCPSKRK
Description: yeast surface display FACS.

In the next assay the target is T7, CCL17_HUMAN (human, UniProt Q92583 24-94).
T7 sequence: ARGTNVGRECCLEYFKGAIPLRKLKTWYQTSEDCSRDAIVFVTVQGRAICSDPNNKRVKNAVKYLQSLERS
The experiment in a line: yeast surface display FACS.

The target in a further assay is T8, CCL19_HUMAN (human, UniProt Q99731 22-98).
T8 sequence: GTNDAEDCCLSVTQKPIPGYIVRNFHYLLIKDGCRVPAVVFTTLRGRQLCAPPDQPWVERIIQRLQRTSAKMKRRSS
The experiment in a line: yeast surface display FACS.

Assay [8] concerns the target T9, CCL11_HUMAN (human, UniProt P51671 24-97). The experiment in a line: yeast surface display FACS.
Another assay deals with T10, CXCL3_HUMAN (human, UniProt P19876 35-107).
T10 sequence: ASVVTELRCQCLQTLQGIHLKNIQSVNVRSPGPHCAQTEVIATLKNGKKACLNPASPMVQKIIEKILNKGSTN
The experiment in a line: BLI. In general terms: In BLI a coated tip is dipped into the sample, and binding shifts an interference pattern.

The target of the next assay is T11, CXCL1_HUMAN (human, UniProt P09341 35-107).
T11 sequence: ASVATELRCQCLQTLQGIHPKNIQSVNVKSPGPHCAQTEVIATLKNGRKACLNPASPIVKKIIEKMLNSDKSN
The experiment in a line: BLI.

The target in assay [9] is T12, CCL18_HUMAN (human, UniProt P55774 21-89).
T12 sequence: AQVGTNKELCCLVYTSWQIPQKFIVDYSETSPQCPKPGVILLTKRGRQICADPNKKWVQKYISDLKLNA
The experiment in a line: yeast surface display FACS.

The target in a further assay is T13, CCL25_HUMAN (human, UniProt O15444 24-150).
T13 sequence: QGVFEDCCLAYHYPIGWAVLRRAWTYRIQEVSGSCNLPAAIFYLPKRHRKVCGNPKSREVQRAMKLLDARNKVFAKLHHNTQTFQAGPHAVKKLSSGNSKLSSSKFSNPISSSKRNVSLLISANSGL
The experiment in a line: yeast surface display FACS.

Assay [10] deals with T1, CCL5_HUMAN. The experiment in a line: yeast surface display FACS. The source holds these as a separate data set.
Assay [11] has as its target T6, CCL1_HUMAN. Description: yeast surface display FACS. This is another data set of the same source.
The next assay has as its target CXCL12_HUMAN (human, UniProt P48061 22-89). The experiment in a line: yeast surface display FACS.
The target in assay [12] is T9, CCL11_HUMAN. Description: yeast surface display FACS. The source holds these as a separate data set.
Assay [13] deals with T12, CCL18_HUMAN. Description: yeast surface display FACS. The source holds these as a separate data set.
The target in assay [14] is T2, CCL8_HUMAN. Description: BLI, dose titration.
Another assay has as its target T14, CCL15_HUMAN (human, UniProt Q16663 22-113).
T14 sequence: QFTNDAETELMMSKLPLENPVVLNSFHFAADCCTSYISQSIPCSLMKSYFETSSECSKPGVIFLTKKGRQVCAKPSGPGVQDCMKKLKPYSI
Description: yeast surface display FACS.

T9 sequence (P51671 24-97 limits assumed): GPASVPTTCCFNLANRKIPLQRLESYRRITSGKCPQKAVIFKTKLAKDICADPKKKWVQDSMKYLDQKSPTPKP
CCL2-647, sequence (P13500 24-99 limits assumed): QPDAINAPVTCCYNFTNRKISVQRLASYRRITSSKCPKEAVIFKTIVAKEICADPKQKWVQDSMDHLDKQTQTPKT
CXCL12_HUMAN, sequence (P48061 22-89 limits assumed): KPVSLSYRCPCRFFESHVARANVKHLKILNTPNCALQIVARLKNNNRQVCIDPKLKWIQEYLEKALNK

B1: P698_RHISA (other)
chain: NEDDSSDYYDASPMNCSSMSVNSTMGWLSMNCTMSCNGTTFPLSNSTHCFHSYTNLTVQSRMETMTYNCSVGTCSNGTCVENGTTTTCW
For the molecule B1, the binding result with CCL5_HUMAN [1] and with CCL8_HUMAN [2] was “binds” throughout.

B2: P672_RHIPU (other)
chain: VCEVSEQEGVGEDNATEDEDYEDFFKPVTCYFANSTVGPLRPPNCTVVCTNNTAWWNDTKSDGGHCYSEYRPEKRTHSREIYNCTIGVCGNGTCIANHTYADCW
On to B2, for which, in the assay with CCL8_HUMAN [3], the “IC50, CCL8 induced THP-1 cell migration” value is 3 nM. In addition, the IC50 in the assay with CCL8-647 and in the assay with CCL2-647 was 21 nM in each case. In addition, the “IC50, THP1 cell migration” value with CCL3_HUMAN [4] amounted to 5.74 nM; with CCL8_HUMAN [5], 2.37 nM.

B3: P1014_AMBCA (other)
chain: DIIGGIPGCGDPTTTSAPEVPPKHFAVRTDKDGCTLMIIGTWMTTEDHNRLPPDIGEKRAPYGRVQLPASCKKNCHGKVKNLPNGTPCREVFGDPRRGRKHIKNGCTVGKCQSGLCVTDKRIISCYIPPNITDPIPTHGPWAE
Regarding B3, the binding result with CCL4_HUMAN is given as “binds”.

B4: P1005_AMBMA (other)
chain: EKDTPKNIPGCGDTGTTAAPPADNPKHFAVYTDKHGCTIKVIGTWMTKEDHSRLPVSLRRVRASSGRVMLPASCQKICNDTVKNFPEGTPCRLVTGDPIKGKNHIKDGCIRGYCSSGVCVSDKRNISCYVPPN
For B4, the binding result in the assay with CCL5_HUMAN [1], with CCL3_HUMAN [6], with CCL1_HUMAN [7], with CCL17_HUMAN, with CCL19_HUMAN and with CCL11_HUMAN [8] was “binds” each time.

B5: P943_IXORI (other)
chain: RSKQPTASQSSKNSIKAEFCDTNCTQGTNGAWSGCSEGCFCVHVGNNTKGRCMKLSSDYDYTTQ
Turning to B5, the figures for the Kd with CXCL3_HUMAN and with CXCL1_HUMAN were 270 nM and 540 nM, respectively.

B6: P1011_AMBTR (other)
chain: EKDTPKNIPGCEDAGTTAAPPADNPKHYAVYTDKNGCTFKVIGTWMTKEDHRRLPVSLRRVRASSGRVKLPASCQKICKHSVKKFPEGTPCRLVTRDPIKGKNHIKNGCIRGYCSSGVCVSDNRSISCYVLPNNTELTSPSGSFAE
Regarding B6, the binding result in the assay with CCL5_HUMAN [1], with CCL17_HUMAN, with CCL11_HUMAN [8], in the assay with CCL18_HUMAN [9] and with CCL25_HUMAN was “binds” in each case.

B7: P1209_AMBPA (other)
chain: KTDTKNAAGELPPKVAIPGCEDPATTKAPLPDDPRYYGVTIDKDGCQRKVLGSSQRQQRQVQNGRKPGRKGRGRRPVFVDLKLTVDCKRKCNGTYSQLPDGEPCLVCDGEPYGRHRTIKGGCYQGNCSSGQCHRGERKVNCYIPKNITNNVLNSVNLAE
B7: the binding result with CCL5_HUMAN [10], in the assay with CCL1_HUMAN [11], with CXCL12_HUMAN, with CCL11_HUMAN [12] and in the assay with CCL18_HUMAN [13] was “binds” throughout.

B8: EVA1(P672 22-32) hybrid protein (designed binder)
chain: EDDEDYEDFFKPVTCYFLVAENKTGYPTIVACKQDCNGTTETAPNGTRCFSIGDEGLRRMTANLPYDCPLGQCSNGDCIPKETYEVCYRRNWRDKKN
In the case of B8, in the assay with CCL8_HUMAN [14], the Kd was found to be 490 nM.

B9: P1006_AMBCA (other)
chain: DTIGGIPGCGDPATTSAPEDQPKHYAVRTDKNGCKVMVIGTWMTKEDHNLLPPYISKERAPSGKVQLPASCKKNCHGKLKNLPNGTPCREVFGDLRRRRKHIKDGCKVGKCQNGLCVSEERIISCYLPPNITDPRPTHGPLAE
For B9, the binding result in the assay with CCL5_HUMAN [1], with CCL19_HUMAN, in the assay with CCL15_HUMAN and with CCL25_HUMAN was “binds” throughout.

These data come from patent US20240034757A1 (OXFORD UNIVERSITY INNOVATION, published 2024).
